Assay results taken from article PMC7498065 (2020).

Molecular target: Complement component C5 (human, UniProt P01031)
Experiment: SPR

Sequence of Complement component C5 (P01031 19-673, chain 1 of 2): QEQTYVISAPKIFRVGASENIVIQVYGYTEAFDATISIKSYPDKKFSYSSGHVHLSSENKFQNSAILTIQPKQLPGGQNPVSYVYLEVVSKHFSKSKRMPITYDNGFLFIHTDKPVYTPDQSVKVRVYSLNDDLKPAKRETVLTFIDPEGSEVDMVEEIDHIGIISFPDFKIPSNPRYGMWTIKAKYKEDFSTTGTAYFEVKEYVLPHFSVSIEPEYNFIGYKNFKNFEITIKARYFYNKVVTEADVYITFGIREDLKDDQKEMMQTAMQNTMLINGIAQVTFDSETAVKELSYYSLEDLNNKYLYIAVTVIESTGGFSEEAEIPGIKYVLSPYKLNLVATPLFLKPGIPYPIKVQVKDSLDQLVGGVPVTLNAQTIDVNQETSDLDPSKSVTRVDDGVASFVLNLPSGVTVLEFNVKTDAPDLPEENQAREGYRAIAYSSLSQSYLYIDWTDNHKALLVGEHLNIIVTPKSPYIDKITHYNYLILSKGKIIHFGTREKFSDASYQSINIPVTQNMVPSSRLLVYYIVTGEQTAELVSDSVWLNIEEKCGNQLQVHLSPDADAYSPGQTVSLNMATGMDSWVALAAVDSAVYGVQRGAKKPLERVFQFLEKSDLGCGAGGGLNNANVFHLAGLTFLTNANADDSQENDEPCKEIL
Sequence of Complement component C5 (P01031 678-1676, chain 2 of 2): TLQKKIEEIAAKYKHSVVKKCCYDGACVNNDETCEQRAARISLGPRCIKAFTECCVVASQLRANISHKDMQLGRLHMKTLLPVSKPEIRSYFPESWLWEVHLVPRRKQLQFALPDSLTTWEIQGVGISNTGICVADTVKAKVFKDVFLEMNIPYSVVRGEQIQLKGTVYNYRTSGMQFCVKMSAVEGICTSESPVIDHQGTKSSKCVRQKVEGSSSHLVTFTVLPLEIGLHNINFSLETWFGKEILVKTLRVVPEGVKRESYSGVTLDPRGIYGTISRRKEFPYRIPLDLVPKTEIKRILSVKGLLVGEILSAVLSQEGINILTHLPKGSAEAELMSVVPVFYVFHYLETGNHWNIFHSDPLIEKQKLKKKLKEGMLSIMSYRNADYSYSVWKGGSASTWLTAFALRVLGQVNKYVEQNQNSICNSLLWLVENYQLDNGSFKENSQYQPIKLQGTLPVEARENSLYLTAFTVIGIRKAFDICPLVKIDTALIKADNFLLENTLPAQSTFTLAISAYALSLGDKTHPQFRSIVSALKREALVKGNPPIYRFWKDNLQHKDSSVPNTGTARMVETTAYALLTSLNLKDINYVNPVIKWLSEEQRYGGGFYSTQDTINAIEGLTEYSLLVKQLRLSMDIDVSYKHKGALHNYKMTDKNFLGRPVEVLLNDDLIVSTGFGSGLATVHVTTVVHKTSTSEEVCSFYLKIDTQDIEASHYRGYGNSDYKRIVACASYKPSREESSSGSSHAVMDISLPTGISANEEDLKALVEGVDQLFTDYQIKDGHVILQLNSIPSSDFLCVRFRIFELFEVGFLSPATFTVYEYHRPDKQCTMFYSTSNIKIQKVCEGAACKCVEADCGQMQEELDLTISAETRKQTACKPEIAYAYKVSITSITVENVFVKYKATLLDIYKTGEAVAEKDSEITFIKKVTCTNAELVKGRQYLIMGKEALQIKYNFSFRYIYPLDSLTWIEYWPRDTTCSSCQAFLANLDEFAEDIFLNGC

B1: PGT121-K149 fusion protein (Fab)
chain 1: QMQLQESGPGLVKPSETLSLTCSVSGASISDSYWSWIRRSPGKGLEWIGYVHKSGDTNYSPSLKSRVNLSLDTSKNQVSLSLVAATAADSGKYYCARTLHGRRIYGSENLYFQGSCPDGFSYRSWDDFCCPMVGRCLAPRNGSENLYFQGSEWFTYFYMDVWGNGTQVTVSS
chain 2: QSVLTQPPDISVAPGETARISCGEKSLGSRAVQWYQHRAGQAPSLIIYNNQDRPSGIPERFSGSPDSPFGTTATLTITSVEAGDEADYYCHIWDSRVPTKWVFGGGTTLTVL
Binder B1 has a Kd of 517 nM.

B2: PGT121-K136 fusion protein (Fab)
chain 1: QMQLQESGPGLVKPSETLSLTCSVSGASISDSYWSWIRRSPGKGLEWIGYVHKSGDTNYSPSLKSRVNLSLDTSKNQVSLSLVAATAADSGKYYCARTLHGRRIYGSENLYFQGTCPDNYREVDGCDPYDCCLTTWCTNSYCTRYIENLYFQGSEWFTYFYMDVWGNGTQVTVSS
chain 2: QSVLTQPPDISVAPGETARISCGEKSLGSRAVQWYQHRAGQAPSLIIYNNQDRPSGIPERFSGSPDSPFGTTATLTITSVEAGDEADYYCHIWDSRVPTKWVFGGGTTLTVL
Work on B2 yielded a Kd of less than 2.2 nM.
